Test [1] deals with T1, recombinant human CTLA-4-Fc (7268-CT, R&D Systems) (human, UniProt P16410 36-162).
T1 construct: bought; also called rhCTLA-4-Fc; rhCTLA4-Fc; Fc part of the bought chimera not given
Put plainly: blocking ELISA, coated CTLA-4-Fc, competitor His-CD80. As for the experimental part:
(§1) Table 24. […] Summary of blocking ELISA data from FIG. 13B. […] The data were then analyzed and fit by nonlinear regression.
(§2) ELISA plates (Nunc, MaxiSorp ELISA plates, flat bottom, uncoated, BioLegend, San Diego, Calif., USA) were coated with recombinant human CTLA-4-Fc (7268-CT, R&D Systems, Minneapolis, Minn., USA) at 1 μg/mL overnight at 4° C. Plates were then blocked with 5% milk in phosphate buffered saline with tween 20 (PBST) for 1 hour at room temperature. A titration series of the indicated mAbs was then added to the plates and then the plates were incubated for 1 hour at room temperature to allow mAb binding. Excess, unbound mAb was removed by washing with PBST. […] After incubation for 1 hour at room temperature, the plates were washed to remove unbound ligand. Bound ligand was detected with a horseradish peroxidase (HRP)-conjugated anti-His antibody (652504, BioLegend, San Diego, Calif., USA). After incubation for 1 hour at room temperature and washing, the plates were developed with 3,3′,5,5′-Tetramethylbenzidine (TMB) substrate (34028, Pierce, Waltham, Mass., USA). […] Absorbance at 450 nm was read using a Spectramax i3x plate reader (Molecular Devices. San Jose, Calif., USA). Half maximal inhibitory concentration (IC50) values were calculated by plotting absorbance versus the log of concentration using Prism (GraphPad, San Diego, Calif., USA).
For orientation: ELISA stands for enzyme-linked immunosorbent assay.

Another test concerns the target mouse CTLA-4 (mouse, UniProt P09793 36-161, limits assumed). The test is described as follows: BLI (Octet). The method, boiled down: (§3)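 Antibodies captured on anti-human IgG Fc (AHC) biosensors (Octet Red96); antigen analyte from 300 nM in 6 serial 1:3 dilutions. Kinetics from global fitting to a 1:1 binding model.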
A general note: Biolayer interferometry detects binding as a change in optical thickness at a sensor tip.

Test [2] deals with T2, His-tagged cynomolgus CTLA-4 (CT4-C5227; Acro Biosystems) (cynomolgus, UniProt G7PL88 36-161).
T2 construct: also called soluble cynomolgus CTLA-4; cyno CTLA-4
The test is described as follows: BLI (Octet). The method in brief:
as §3

The target in test [3] is T3, His-tagged human CTLA-4 (CT4-H5229; Acro Biosystems) (human, UniProt P16410 36-161).
T3 construct: bought soluble protein; also called soluble human CTLA-4; recombinant human CTLA-4; not shown: His tag
Put plainly: SPR (Carterra). The method in brief: (§4)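 mAb supernatants captured, at two densities, on an anti-human IgG Fc lawn. His-tagged human CTLA-4 injected at 1.95, 7.8, 31.25, 125 and 500 nM in HBS-EPC pH 7.4 with 1.0 mg/mL BSA, as a non-regenerative series with 5-min association and 15-min dissociation. Double-referenced data fitted for ka, kd and KD.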

For test [4], the target named is T1, recombinant human CTLA-4-Fc (7268-CT, …). The test is described as follows: blocking ELISA, coated CTLA-4-Fc, competitor His-CD86. As for the experimental part: as §1, §2
Test [5] addresses human CTLA-4 expressed on the cell surface (human, UniProt P16410 36-223). The test is described as follows: cell-based or functional assay.
Test [6] has as its target T3, His-tagged human CTLA-4 (CT4-H5229; …). Put plainly: SPR (Carterra), soluble human CTLA-4.
Test [7] has the same target. The test is described as follows: SPR (Carterra). The method in brief:
as §4
The source holds these as a separate data set.

human CTLA-4 expressed on the cell surface, sequence (P16410 36-223 limits assumed): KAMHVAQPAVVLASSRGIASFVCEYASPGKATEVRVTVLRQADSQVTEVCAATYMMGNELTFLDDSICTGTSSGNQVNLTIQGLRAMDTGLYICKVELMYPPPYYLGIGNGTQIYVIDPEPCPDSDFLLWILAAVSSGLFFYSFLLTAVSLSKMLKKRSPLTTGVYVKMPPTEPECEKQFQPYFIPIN
T2 sequence (G7PL88 entry or part of it limits assumed, form in doubt): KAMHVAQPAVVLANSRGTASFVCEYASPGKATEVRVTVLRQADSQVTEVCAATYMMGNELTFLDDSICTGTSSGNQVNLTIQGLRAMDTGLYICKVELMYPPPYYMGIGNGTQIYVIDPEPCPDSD
mouse CTLA-4, sequence (P09793 36-161 limits assumed): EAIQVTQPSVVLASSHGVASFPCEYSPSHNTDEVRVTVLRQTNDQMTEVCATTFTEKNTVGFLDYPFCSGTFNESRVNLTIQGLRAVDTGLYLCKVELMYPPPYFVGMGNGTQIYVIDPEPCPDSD
T3 sequence (P16410 36-161 limits assumed): as the sequence (G7PL88 entry or part of it limits assumed, form in doubt) above, with N14S, T18I, M106L counted along it
T1 sequence (P16410 36-162): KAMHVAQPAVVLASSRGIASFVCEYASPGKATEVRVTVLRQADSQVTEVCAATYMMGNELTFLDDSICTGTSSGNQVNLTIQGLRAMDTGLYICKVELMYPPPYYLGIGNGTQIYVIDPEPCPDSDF

B1: antibody A5 (L5H5) (antibody, V domains shown)
VH: QVQLVESGGGVVQPGRSLRLSCAASGFTFSSYGMHWVRQAPGKGLEWVAVIWYDGNNKYYADSVKGRFTISRDNSKNTLYLQMYSLRAEDTAVYYCARGGILAAGIFDYWGQGTLVTVSS
VL: EIVLTQSPGTLSLSPGDRATLSCRASQSGSSSYLAWYQQKPGQAPRLLIYGASSRATGIPDRFSGSGSGTDFTLTISRLEPEDFAVYYCQQYGTSPFTSGPGTKVDIK
notes: also called aCTLA-4.28; CTLA4.A5
What is called IC50 is the concentration needed to halve the response being measured. For orientation: Kd means the constant that tells how readily two partners part at equilibrium. A lower Kd goes with a tighter complex. The koff is the rate constant with which the complex falls apart. Low readings indicate slow dissociation, high ones fast dissociation. The kon is the second-order rate constant of association. A high value points to fast association. Consider B1, for which the IC50 in test [1] and in test [4] was 0.12 µg/mL throughout. Also, the Kd turned out to be 39.4 nM in the test with mouse CTLA-4; 2.2 nM in test [2]; 4.6 nM in test [3]; 4.6 nM in test [6]; 4.6 nM in test [7]. For the same molecule, the “Promega assay % inhibition” value in test [5] was 100%. Besides, in test [5], the “Promega assay antagonist (EC50, ug/mL)” value was determined as 0.18 µg/mL. Further, the koff in test [6] and in test [7] was 0.00042 s⁻¹ throughout. Besides, the kon in test [6] and in test [7] was 90000 M⁻¹ s⁻¹ each time.

B2: antibody A2 (L2H2) (antibody, V domains shown)
VH: QVQLVESGGGVVQPGRSLRLSCAASGFTFSNYGMNWVRQAPGKGLEWVAVIWYDGRNKHYADSVKGRFTISRDNSKNTLYLQMNSLRAEDTAVYYCARGGDWGPYFDYWGQGTLVTVSS
VL: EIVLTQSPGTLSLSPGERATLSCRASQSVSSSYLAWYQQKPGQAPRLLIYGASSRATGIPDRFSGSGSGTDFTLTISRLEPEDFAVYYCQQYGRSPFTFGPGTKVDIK
notes: also called aCTLA-4.4; CTLA4.A2
As to B2, in the test with mouse CTLA-4, the binding result is listed as “no binding (tested: 300 nM)”. The dissociation constant Kd worked out at 3.1 nM in test [2], 5.1 nM in test [3], 5.1 nM in test [6] and 5.1 nM in test [7]. Further, the “Promega assay % inhibition” value in test [5] stood at 75.4%. Moreover, the “Promega assay antagonist (EC50, ug/mL)” value in test [5] turned out to be 0.12 µg/mL. Moreover, the dissociation rate constant (koff) in test [6] and in test [7] was 0.00052 s⁻¹ throughout. The kon in test [6] and in test [7] was 100000 M⁻¹ s⁻¹ in each case.

B3: antibody A7 (L7H7) (antibody, V domains shown)
VH: QVQLVESGGGVVQPGRSLRLSCAASGFTLSSFGMHWVRQAPGKGLEWVAVIWYDGSNKYYADSVKGRFIISRDNSKTALYLQMNSLRAEDTAVYYCARAHYFGAFDIWGQGTMVTVSS
VL: not shown
notes: also called aCTLA-4.3; CTLA4.A7
Turning to B3, in the test with mouse CTLA-4, the binding result is “no binding (tested: 300 nM)”. For the same molecule, the Kd in test [2] was determined as 0.75 nM; in test [3] it was 5.7 nM; in test [6], 5.7 nM; in test [7], 5.7 nM. In test [5], the “Promega assay % inhibition” value was found to be 11.5%. Moreover, the “Promega assay antagonist (EC50, ug/mL)” value in test [5] amounted to 0.17 µg/mL. Besides, the koff in test [6] and in test [7] was 0.00036 s⁻¹ each time. The kon in test [6] and in test [7] was 64000 M⁻¹ s⁻¹ each time.

Source of the values: patent publication US20230265192A1 (GIGAGEN, published 2023).
